Test results reported in patent publication US20250250357A1 (NANJING ZAIMING PHARMACEUTICAL, published 2025).

Assays:
human MSLN-R3 protein [1] = target: T1, human MSLN-R3 protein (human, UniProt Q13421 487-598); experiment: ELISA on coated antigen, antibody 100 nM
T1 construct: also called hMSLN-R3

[2] = target: T2, human MSLN-hFc protein (Acro, Cat. No. MSN-H5253) (human, UniProt Q13421 296-580); experiment: ELISA on coated antigen, antibody 0.01 nM
T2 construct: the method names the coated protein as human MSLN-hFc (Acro); also called human MSLN full-length protein
T2 sequence (Q13421 other isoform, or with tags, fused parts or gaps limits assumed): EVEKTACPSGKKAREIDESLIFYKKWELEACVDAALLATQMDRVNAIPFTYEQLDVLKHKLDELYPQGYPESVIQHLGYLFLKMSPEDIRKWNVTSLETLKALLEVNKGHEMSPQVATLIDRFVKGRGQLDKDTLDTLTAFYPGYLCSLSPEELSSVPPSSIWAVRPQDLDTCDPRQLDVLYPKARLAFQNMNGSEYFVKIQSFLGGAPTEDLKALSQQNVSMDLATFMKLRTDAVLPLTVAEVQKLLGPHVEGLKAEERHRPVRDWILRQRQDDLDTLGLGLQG

[3] = target: T2, human MSLN-hFc protein (Acro, Cat. No. …); experiment: ELISA on coated antigen, antibody 100 nM
human MSLN-R3 protein [4] = target: T1, human MSLN-R3 protein; experiment: ELISA on coated antigen, antibody 10 nM
[5] = target: T2, human MSLN-hFc protein (Acro, Cat. No. …); experiment: ELISA on coated antigen, antibody 0.0001 nM
[6] = target: T2, human MSLN-hFc protein (Acro, Cat. No. …); experiment: ELISA on coated antigen, antibody 1 nM
[7] = target: T2, human MSLN-hFc protein (Acro, Cat. No. …); experiment: ELISA on coated antigen, antibody 0.001 nM
human MSLN-R3 protein [8] = target: T1, human MSLN-R3 protein; experiment: ELISA on coated antigen, antibody 0.1 nM
[9] = target: T2, human MSLN-hFc protein (Acro, Cat. No. …); experiment: ELISA on coated antigen, antibody 10 nM
[10] = target: T2, human MSLN-hFc protein (Acro, Cat. No. …); experiment: ELISA on coated antigen, antibody 0.1 nM
human MSLN-R3 protein [11] = target: T1, human MSLN-R3 protein; experiment: ELISA on coated antigen, antibody 0.001 nM
human MSLN-R3 protein [12] = target: T1, human MSLN-R3 protein; experiment: ELISA on coated antigen, antibody 0.01 nM
human MSLN-R3 protein [13] = target: T1, human MSLN-R3 protein; experiment: ELISA on coated antigen, antibody 1 nM
human MSLN-R3 protein [14] = target: T1, human MSLN-R3 protein; experiment: ELISA on coated antigen, antibody 0.0001 nM

T1 sequence (Q13421 495-606, form in doubt): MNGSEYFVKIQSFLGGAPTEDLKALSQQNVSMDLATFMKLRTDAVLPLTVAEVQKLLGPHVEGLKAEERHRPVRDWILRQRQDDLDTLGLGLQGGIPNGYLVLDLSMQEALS

| Binder | OD450 (human MSLN-R3 protein [1]) [OD450] | OD450 [2] [OD450] | OD450 [3] [OD450] | OD450 (human MSLN-R3 protein [4]) [OD450] | OD450 [5] [OD450] | OD450 [6] [OD450] | OD450 [7] [OD450] | OD450 (human MSLN-R3 protein [8]) [OD450] | OD450 [9] [OD450] | OD450 [10] [OD450] | OD450 (human MSLN-R3 protein [11]) [OD450] | OD450 (human MSLN-R3 protein [12]) [OD450] | OD450 (human MSLN-R3 protein [13]) [OD450] | OD450 (human MSLN-R3 protein [14]) [OD450] |
| --- | --- | --- | --- | --- | --- | --- | --- | --- | --- | --- | --- | --- | --- | --- |
| F7.44.20-H1 (scFv, not shown: small tags and cut ends, also called S009-F7.44.20 humanized antibody VH1 + VL1) scFv: EVQLVQSGAEVKKPGASVKVSCKASGYTFTDYNMDWVRQAPGQGLEWMGDINPSTGGTIYNQKFNGRVTMTEDKSTSTVYMELSSLRSEDTAVYYCARRRIGTGYFDVWGQGTTVTVSSGGGGSGGGGSGGGGSEIVLTQSPDFQSVTPKEKVTITCSASSSVISSYLSWYQQKPDQSPKLLIYRTSNLASGVPSRFSGSGSGTDFTLTINSLEAEDAATYYCHQWSSFPYTFGGGTKVEIK | 2.3 | 0.06 | 3.04 | 2.27 | 0.05 | 1.46 | 0.05 | 0.16 | 2.94 | 0.22 | 0.05 | 0.06 | 1.16 | 0.05 |
| F7.44.20-H2 (scFv, not shown: small tags and cut ends, also called S009-F7.44.20 humanized antibody VH1 + VL2) scFv: EVQLVQSGAEVKKPGASVKVSCKASGYTFTDYNMDWVRQAPGQGLEWMGDINPSTGGTIYNQKFNGRVTMTEDKSTSTVYMELSSLRSEDTAVYYCARRRIGTGYFDVWGQGTTVTVSSGGGGSGGGGSGGGGSEIVLTQSPDFQSVTPKEKVTITCSASSSVISSYLSWYQQKPDQSPKLLIYRTSNLASGVPSRFSGSGSGTDYTLTINSLEAEDAATYYCHQWSSFPYTFGGGTKVEIK | 2.35 | 0.05 | 3.06 | 2.22 | 0.04 | 1.26 | 0.04 | 0.11 | 2.71 | 0.16 | 0.05 | 0.05 | 0.95 | 0.05 |
| F7.44.20-H5 (scFv, not shown: small tags and cut ends, also called S009-F7.44.20 humanized antibody VH1a + VL1) scFv: EVQLVQSGAEVKKPGASVKVSCKASGYTFTDYNMDWVRQAPGQGLEWMGDINPSTGGTIYNQKFQGRVTMTEDKSTSTVYMELSSLRSEDTAVYYCARRRIGTGYFDVWGQGTTVTVSSGGGGSGGGGSGGGGSEIVLTQSPDFQSVTPKEKVTITCSASSSVISSYLSWYQQKPDQSPKLLIYRTSNLASGVPSRFSGSGSGTDFTLTINSLEAEDAATYYCHQWSSFPYTFGGGTKVEIK | 2.27 | 0.05 | 2.94 | 2.05 | 0.04 | 1.3 | 0.04 | 0.11 | 3.01 | 0.19 | 0.04 | 0.04 | 0.8 | 0.05 |
| F7.44.20-H6 (scFv, not shown: small tags and cut ends, also called S009-F7.44.20 humanized antibody VH1a + VL2) scFv: EVQLVQSGAEVKKPGASVKVSCKASGYTFTDYNMDWVRQAPGQGLEWMGDINPSTGGTIYNQKFQGRVTMTEDKSTSTVYMELSSLRSEDTAVYYCARRRIGTGYFDVWGQGTTVTVSSGGGGSGGGGSGGGGSEIVLTQSPDFQSVTPKEKVTITCSASSSVISSYLSWYQQKPDQSPKLLIYRTSNLASGVPSRFSGSGSGTDYTLTINSLEAEDAATYYCHQWSSFPYTFGGGTKVEIK | 2.12 | 0.07 | 3.04 | 2.15 | 0.05 | 1.95 | 0.05 | 0.21 | 2.91 | 0.37 | 0.05 | 0.05 | 1.31 | 0.05 |
| F7.44.20-H9 (scFv, not shown: small tags and cut ends, also called S009-F7.44.20 humanized antibody VH2 + VL1) scFv: EVQLVQSGAEVKKPGASVKVSCKASGYTFTDYNMDWVRQAPGQGLEWMGDINPSTGGTIYNQKFNGRVTMTEDKSASTVYMELSSLRSEDTAVYYCARRRIGTGYFDVWGQGTTVTVSSGGGGSGGGGSGGGGSEIVLTQSPDFQSVTPKEKVTITCSASSSVISSYLSWYQQKPDQSPKLLIYRTSNLASGVPSRFSGSGSGTDFTLTINSLEAEDAATYYCHQWSSFPYTFGGGTKVEIK | 2.52 | 0.06 | 3.25 | 2.1 | 0.05 | 1.3 | 0.05 | 0.11 | 2.97 | 0.19 | 0.04 | 0.04 | 0.72 | 0.04 |
| F7.44.20-H10 (scFv, not shown: small tags and cut ends, also called S009-F7.44.20 humanized antibody VH2 + VL2) scFv: EVQLVQSGAEVKKPGASVKVSCKASGYTFTDYNMDWVRQAPGQGLEWMGDINPSTGGTIYNQKFNGRVTMTEDKSASTVYMELSSLRSEDTAVYYCARRRIGTGYFDVWGQGTTVTVSSGGGGSGGGGSGGGGSEIVLTQSPDFQSVTPKEKVTITCSASSSVISSYLSWYQQKPDQSPKLLIYRTSNLASGVPSRFSGSGSGTDYTLTINSLEAEDAATYYCHQWSSFPYTFGGGTKVEIK | 2.44 | 0.06 | 3.25 | 2.25 | 0.05 | 1.44 | 0.04 | 0.11 | 2.93 | 0.24 | 0.04 | 0.04 | 0.81 | 0.04 |
| F7.44.20-H13 (scFv, not shown: small tags and cut ends, also called S009-F7.44.20 humanized antibody VH2a + VL1) scFv: EVQLVQSGAEVKKPGASVKVSCKASGYTFTDYNMDWVRQAPGQGLEWMGDINPSTGGTIYNQKFSGRVTMTEDKSASTVYMELSSLRSEDTAVYYCARRRIGTGYFDVWGQGTTVTVSSGGGGSGGGGSGGGGSEIVLTQSPDFQSVTPKEKVTITCSASSSVISSYLSWYQQKPDQSPKLLIYRTSNLASGVPSRFSGSGSGTDFTLTINSLEAEDAATYYCHQWSSFPYTFGGGTKVEIK | 1.94 | 0.06 | 3.12 | 1.57 | 0.06 | 0.98 | 0.06 | 0.08 | 2.81 | 0.16 | 0.05 | 0.05 | 0.45 | 0.05 |
| F7.44.20-H14 (scFv, not shown: small tags and cut ends, also called S009-F7.44.20 humanized antibody VH2a + VL2) scFv: EVQLVQSGAEVKKPGASVKVSCKASGYTFTDYNMDWVRQAPGQGLEWMGDINPSTGGTIYNQKFSGRVTMTEDKSASTVYMELSSLRSEDTAVYYCARRRIGTGYFDVWGQGTTVTVSSGGGGSGGGGSGGGGSEIVLTQSPDFQSVTPKEKVTITCSASSSVISSYLSWYQQKPDQSPKLLIYRTSNLASGVPSRFSGSGSGTDYTLTINSLEAEDAATYYCHQWSSFPYTFGGGTKVEIK | 1.9 | 0.07 | 3.13 | 1.69 | 0.05 | 1.2 | 0.05 | 0.1 | 2.89 | 0.19 | 0.04 | 0.04 | 0.66 | 0.04 |
| F7.44.20-H3 (scFv, not shown: small tags and cut ends, also called S009-F7.44.20 humanized antibody VH1 + VL3) scFv: EVQLVQSGAEVKKPGASVKVSCKASGYTFTDYNMDWVRQAPGQGLEWMGDINPSTGGTIYNQKFNGRVTMTEDKSTSTVYMELSSLRSEDTAVYYCARRRIGTGYFDVWGQGTTVTVSSGGGGSGGGGSGGGGSEIVLTQSPATLSLSPGERATLSCSASSSVISSYLSWYQQKPGQSPRLLIYRTSNLASGIPARFSGSGSGTDYTLTISSLEPEDFAVYYCHQWSSFPYTFGGGTKVEIK | 2.21 | 0.06 | 2.96 | 2.12 | 0.04 | 1.22 | 0.04 | 0.1 | 2.74 | 0.15 | 0.04 | 0.04 | 0.83 | 0.05 |
